As a reminder, the Ki is a dissociation constant, usually derived from enzyme kinetics or from competition with a known ligand.

The values below come from patent US20110136733A1 (IPSEN PHARMA S A S, published 2011).

Where no end group is shown, it is not given here. [ ]: non-standard residue; d: D form. The star is where a group is joined. Psu = N-propylsuccinimide on the Cys sulfur (from N-propylmaleimide), CCCN1C(=O)CC(*)C1=O; Ac6c = NC1(C(=O)O)CCCCC1; Nle = CCCC[C@H](N)C(=O)O; Aib = CC(C)(N)C(=O)O

This experiment has as its target T1, human recombinant GIP receptor (human, UniProt P48546 22-466).
T1 construct: whole, on cells; Membranes of CHO-K1 cells expressing the receptor; also called hGIP receptor
T1 sequence (looked up): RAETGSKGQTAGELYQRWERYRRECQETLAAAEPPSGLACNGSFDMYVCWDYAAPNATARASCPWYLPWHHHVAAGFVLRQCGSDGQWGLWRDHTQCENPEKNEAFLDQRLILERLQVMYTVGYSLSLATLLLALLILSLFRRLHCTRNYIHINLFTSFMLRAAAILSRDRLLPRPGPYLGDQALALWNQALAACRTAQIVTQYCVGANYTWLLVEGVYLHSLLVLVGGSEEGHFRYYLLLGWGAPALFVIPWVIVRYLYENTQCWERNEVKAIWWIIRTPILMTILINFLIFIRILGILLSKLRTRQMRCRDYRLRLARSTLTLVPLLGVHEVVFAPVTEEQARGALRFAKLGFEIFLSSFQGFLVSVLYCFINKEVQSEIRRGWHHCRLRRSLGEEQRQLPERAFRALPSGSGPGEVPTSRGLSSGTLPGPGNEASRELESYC
The experiment can be described thus: [125I]GIP competition, membranes of CHO-K1 cells expressing human GIP receptor.

With Y[Aib]EGTF[Ac6c]SDYSIAMDKIHQQDFVNWLLAQKGKKNDWKHNITQ-OH [(Aib^2, A6c^7)hGIP(1-42)-OH], the inhibition constant (Ki) came to 0.3 nM.

Regarding YXEGTFXSDYSIAXDKIHQQDFVNWLLAQK (Aib at 2; A6c at 7; Nle at 14; C-terminal amide) [(Aib^2, A6c^7, Nle^14)hGIP(1-30)-NH2], the Ki was 1.04 nM.

Regarding YXEGTFXSDYSIAXDKIHQQDFVNWLLAQK (Aib at 2; A6c at 7 and 14; C-terminal amide) [(Aib^2, A6c^7, 14)hGIP(1-30)-NH2], the inhibitory constant (Ki) was determined as 1.19 nM. In the case of YXEGTFXSDYSIAXDKIHQQDFVNWLLAQK (Aib at 2; A5c at 7 and 14; C-terminal amide) [(Aib^2, A5c^7, 14)hGIP(1-30)-NH2], the inhibition constant (Ki) was found to be 2.32 nM. Under YXEGTFXSDYSIAMDKIHQQDFVNWLLAQKXKKNDWKHNITQ (Aib at 2 and 31; A6c at 7; C-terminal free acid) [(Aib^2, 31, A6c^7)hGIP(1-42)-OH] stands 6.96 nM. YXEGTFISDYSIAXDKIHQQDFVNWLLAQKGKKNDWKHNITQ (Aib at 2; A6c at 14; C-terminal free acid) [(Aib^2, A6c^14)hGIP(1-42)-OH]: the Ki amounted to 0.07 nM. The same measure for YXEGTFXSDYSIAXDKIHQQDFVNWXLAQKGKKNDWKHNITQ (Aib at 2; A6c at 7 and 26; Nle at 14; C-terminal free acid) [(Aib^2, A6c^7, 26, Nle^14)hGIP(1-42)-OH]: 2.54 nM. As for YXEGTFXSDYSIAXDKIHQQDFVNWLXAQKGKKNDWKHNITQ (Aib at 2; A6c at 7 and 27; Nle at 14; C-terminal free acid) [(Aib^2, A6c^7, 27, Nle^14)hGIP(1-42)-OH], the Ki was determined as 121 nM. Under YXEGTFISDYXIAXDKIHQQDFVNWLLAQKGKKNDWKHNITQ (Aib at 2 and 11; A6c at 14; C-terminal free acid) [(Aib^2, 11, A6c^14)hGIP(1-42)-OH] stands 0.73 nM; under YXEGTFISDYSIAXDKIHQQDFVNWLLAQKGKKNDWKHNITQ (A5c at 2; Nle at 14; C-terminal free acid) [(A5c^2, Nle^14)hGIP(1-42)-OH], 15.9 nM.

YXEGTFISXYSIAMDKIHQQDFVNWLLAQKGKKNDWKHNITQ (Aib at 2 and 9; C-terminal free acid) [(Aib^2, 9)hGIP(1-42)-OH]: the Ki worked out at 2.66 nM. The same measure for YXEGTFXSDYSIAXDKXHQQDFVNWLLAQKGKKNDWKHNITQ (Aib at 2; A6c at 7 and 17; Nle at 14; C-terminal free acid) [(Aib^2, A6c^7, 17, Nle^14)hGIP(1-42)-OH]: 1.06 nM; for YXEGTFXSDYSIAXDKIHQQDFVNWLLAQKGKKNDWKHNITQ (Aib at 2; A5c at 7; A6c at 14; C-terminal free acid) [(Aib^2, A5c^7, A6c^14)hGIP(1-42)-OH]: 0.63 nM; for YXEGTFXSDYSIAXDKIHQQDFVNWLLAQKXKKNDWKHNITQ (Aib at 2 and 31; A6c at 7; Nle at 14; C-terminal free acid) [(Aib^2, 31, A6c^7, Nle^14)hGIP(1-42)-OH]: 2.06 nM.

As for YXEGTFISDYXIAXDKIHQQDFVNWLLAQK (Aib at 2 and 11; Nle at 14; C-terminal amide) [(Aib^2, 11, Nle^14)hGIP(1-30)-NH2], the Ki worked out at 1.39 nM. As to YXPGTFISDYXIAXDKIHQQDFVNWLLAQK (Aib at 2; A5c at 11; A6c at 14; C-terminal amide) [(Aib^2, Pro^3, A5c^11, A6c^14)hGIP(1-30)-NH2], the Ki is 34.1 nM.

For the molecule YXEGTFXSDYSIAXDKIHQQDFVNWLLAQK (A6c at 2 and 7; Nle at 14; C-terminal amide) [(A6c^2, 7, Nle^14)hGIP(1-30)-NH2], the Ki was found to be 47 nM. The same measure for Y[Aib]EGTF[Ac6c]SDYSIAMDKIHQQDFVNWLLAQKGKKNDWKHNI[Aib]Q-OH [(Aib^2, 41, A6c^7)hGIP(1-42)-OH]: 0.87 nM; for Y[Aib]EGTF[Ac6c]SDYSIA[Nle]DKIHQQDFVNWLLAQKGKKNDWKHN[Ac6c]TQ-OH [(Aib^2, A6c^7, 40, Nle^14)hGIP(1-42)-OH]: 1.09 nM. Regarding Y[Aib]EGTF[Aib]SDYSIAMDKIHQQDFVNWLLAQKGKKNDWKHNITQ-OH [(Aib^2, 7)hGIP(1-42)-OH], the Ki amounted to 0.75 nM. Consider Y[Aib]EGTF[Ac6c]SDYSIAMDKIHQQDFVNWLLAQKGC(Psu)KNDWKHNITQ-OH [[Aib^2, A6c^7, Cys(Psu)^32]hGIP(1-42)-OH], for which the Ki worked out at 2.59 nM. Under Y[Aib]EGTF[Ac6c]SDYSIAMDKIHQQDFVNWLLAQKGKKNDWKHNC(Psu)TQ-OH [[Aib^2, A6c^7, Cys(Psu)^40]hGIP(1-42)-OH] stands 16 nM; under Y[Aib]EGTF[Ac6c]SDYSIAMDKIHQQDFVNWLLAQKGKKNDC(Psu)KHNITQ-OH [[Aib^2, A6c^7, Cys(Psu)^36]hGIP(1-42)-OH], 635 nM. In the case of Y[Aib]EGTF[Ac6c]SDYSIAMDKIHQQDFVNWLLAQKGKKNDWC(Psu)HNITQ-OH [[Aib^2, A6c^7, Cys(Psu)^37]hGIP(1-42)-OH], the Ki turned out to be 22.7 nM. The same measure for Y[Aib]EGTF[Ac6c]SDYSIAMDKIHQQDFVNWLLAQKGKKNDWKHC(Psu)ITQ-OH [[Aib^2, A6c^7, Cys(Psu)^39]hGIP(1-42)-OH]: 13.8 nM; for Y[Aib]EGTF[Ac6c]SDYSIAMDKIHQQDFVNWLLAQKGKKC(Psu)DWKHNITQ-OH [[Aib^2, A6c^7, Cys(Psu)^34]hGIP(1-42)-OH]: 356 nM.

B1: [Aib^2, A6c^7, Cys(Psu)^41]hGIP(1-42)-OH (peptide)
peptide: Y[Aib]EGTF[Ac6c]SDYSIAMDKIHQQDFVNWLLAQKGKKNDWKHNIC(Psu)Q-OH
notes: The synthesis text lists Fmoc-Ala-OH, not Aib, at the cycle for position 2
As for B1, the Ki came to 63.6 nM.

As to Y[Aib]EGTF[Ac6c]SDYSIAMDKIHQQDFVNWLLAQKGKC(Psu)NDWKHNITQ-OH [[Aib^2, A6c^7, Cys(Psu)^33]hGIP(1-42)-OH], the Ki is 1.51 nM. Consider Y[Aib]EGTF[Ac6c]SDYSIAMDKIHQQDFVNWLLAQKGKKNDWKC(Psu)NITQ-OH [[Aib^2, A6c^7, Cys(Psu)^38]hGIP(1-42)-OH], for which the Ki amounted to 5.05 nM.

Regarding Y[Aib]EGTF[Ac6c]SDYSIAMDKIHQQDFVNWLLAQKC(Psu)KKNDWKHNITQ-OH [[Aib^2, A6c^7, Cys(Psu)^31]hGIP(1-42)-OH], the inhibitory constant (Ki) came to 75.8 nM. Under Y[Aib]EGTF[Ac6c]SDYSIAMDKIHQQDFVNWLLAQKGKKNC(Psu)WKHNITQ-OH [[Aib^2, A6c^7, Cys(Psu)^35]hGIP(1-42)-OH] stands 288 nM; under Y[Aib]EGTF[Ac6c]SDYSIA[Nle]DKIHQQDFVNWLL[Aib]QKGKKNDWKHNITQ-OH [(Aib^2, 28, A6c^7, Nle^14)hGIP(1-42)-OH], 1.22 nM; under Y[Aib]EGTF[Ac6c]SDYSIA[Nle]DKIHQQDFVNWLLAQKGKKNDWKHNI[Aib]Q-OH [(Aib^2, 41, A6c^7, Nle^14)hGIP(1-42)-OH], 1.33 nM. The same measure for YXEGTFXSDYSIAXDKIHQQDFVNWLLAQK (Aib at 2; A5c at 7; Nle at 14; C-terminal amide) [(Aib^2, A5c^7, Nle^14)hGIP(1-30)-NH2]: 4.9 nM. Under YXEGTFISDYXIAXDKIHQQDFVNWLLAQK (Aib at 2 and 11; A6c at 14; C-terminal amide) [(Aib^2, 11, A6c^14)hGIP(1-30)-NH2] stands 0.73 nM; under YXEGTFXSDYSIAXDKIHQQDFVNWLLAQK (A5c at 2 and 7; Nle at 14; C-terminal amide) [(A5c^2, 7, Nle^14)hGIP(1-30)-NH2], 25.8 nM; under Y[Aib]EGTF[Ac6c]SDYSIA[Nle]DKIHQQDFVNWLLAQKGKKNDWKHNI[Ac6c]Q-OH [(Aib^2, A6c^7, 41, Nle^14)hGIP(1-42)-OH], 1.17 nM.
